{
  "source": "patent US8349318B2",
  "about": "“Use of specifically engineered enzymes to enhance the efficacy of prodrugs” (The Board of Trustees of the University of Illinois, priority 2008, dated 2013)",
  "origin": "cited, not measured here",
  "data": [
    {"molecule": "dNK: Drosophila melanogaster nucleoside kinase, SEQ ID NO:3 (protein, Drosophila melanogaster) MAEAASCARKGTKYAEGTQPFTVLIEGNIGSGKTTYLNHFEKYKNDICLLTEPVEKWRNVNGVNLLELMYKDPKKWAMPFQSYVTLTMLQSHTAPTNKKLKIMERSIFSARYCFVENMRRNGSLEQGMYNTLEEWYKFIEESIHVQADLIIYLRTSPEVAYERIRQRARSEESCVPLKYLQELHELHEDWLIHQRRPQSCKVLVLDADLNLENIGTEYQRSESSIFDAISSNQQPSPVLVSPSKRQRVAR", "values": [
      {"measurement": "kcat for dC phosphorylation", "setting": "Knecht et al., 2002", "value": 16.5, "unit": "s⁻¹"},
      {"measurement": "efficiency for dC phosphorylation, higher than dCK", "setting": "compared with dCK", "value": "2,500 fold"}
    ]}
  ]
}
